The record followed here is patent publication US8476072B2, “Meganuclease recombination system” (Cellectis, priority 2008, dated 2013).

This assay has as its system cGPS CHO-K1 cells. Description: Gene targeting (KI assay) of lacZ integration matrix in cGPS CHO-K1 cells, double G418/puromycin selection. The assay is classed as cell-based. Particulars: cGPS CHO-K1, pTV-DS-lacz integration matrix, G418 + puromycin selection. As to the method:
Transfection: On D day, 0.5 μg of the pTV-DS-lacz (SEQ ID NO: 17) is transfected in cGPS CHO-K1 cells by using the PolyFect® reagent from Qiagen. One day after the transfection of the integration matrix (D+1), 1000 μg of the purified DPV15b/I-CreI N75/6× His (SEQ ID NO: 58) meganuclease protein is directly added into transfected cGPS CHO-K1 cells.
Selection: cGPS CHO-K1 cells are transfected with the protocol described above. 24 hours after transfection, the cells are washed and fresh medium supplemented with 0.6 mg/ml of G418 is added. After 10 days of G418 selection, the culture medium is replaced with complete medium supplemented with G418 at 0.6 mg/ml and puromycin at 10 μg/ml. 3 to 4 days later, double resistant clones are visualized through an inverted microscope. At this step, double resistant clones are either stained for lacz expression monitoring or picked up for amplification and molecular characterization. (see section 2.5)
X-gal staining: Culture medium is removed and LacZ-targeted double resistant cGPS CHO-K1 adherent cells are washed once with PBS. 5 ml of fixing buffer (100 mM phosphate buffer, 1 mM MgCl2, 0.5% (v/v) glutaraldehyde (Prolabo, 25% solution)) is added. After 10 min. of incubation on ice, fixing is replaced by 5 ml of washing buffer (100 mM phosphate buffer, 1 mM MgCl2, 0.02% (v/v) NP40). […]

B1: DPV15b/I-CreI N75/6× His: purified recombinant I-CreI N75 meganuclease with cell-penetrating peptide DPV15b fused at N-terminal and 6x histidine tag at C-terminal (protein)
chain: MGAYDLRRRERQSRLRRRERQSRNTKYNKEFLLYLAGFVDGDGSIIAQIKPNQSYKFKHQLSLTFQVTQKTQRRWFLDKLVDEIGVGYVRDRGSVSNYILSEIKPLHNFLTQLQPFLKLKQKQANLVLKIIEQLPSAKESPDKFLEVCTWVDQIAALNDSKTRKTTSETVRAVLDSLSEKKKSSPAAALEHHHHHH
On to B1, for which the “number of double resistant cell colonies generated” value is recorded as “around 30” and the selection frequency was 3×10^−4.
